System: MS2 coat protein
Test: apparent KD of MS2 coat protein; designed switch direction (-1 OFF switch, 1 ON switch): -1; higher = weaker reporter binding
In short: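 The reported apparent KD is a per-design median over clusters, from curve fits of normalised cluster fluorescence. Protein titrations used SNAP-549-labelled MS2 coat protein, doubled from 0.7 or 1.5 nM to 3 µM, in Tris-HCl pH 7.5 buffer with KCl, MgCl2, BSA, DTT, tRNA and Tween-20, with no input, 200 uM small-molecule ligand, or an oligonucleotide input. The RNA switches were transcribed on Illumina chips by stalled E. coli RNA polymerase.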

[1] = input ligand: microRNA oligo, concentration not stated
[2] = Eterna round: R95, input ligand: FMN 200 uM
[3] = Eterna round: R95, input ligand: microRNA oligo, concentration not stated
[4] = Eterna round: R95, input ligand: none

AGCUGUGGCCGAGGAUAUCUGUCCCAUAAAACCGAAAUAUAAUCGGACAUGAGGAUCACCCAUGUAGAGAAGGCGGUCUCAGCA [Eli eng2 - 098] (Eterna round: R96, puzzle: Exclusion NG 2)
apparent KD of MS2 coat protein [1]: 31.3 nM

AGCUUUUUGUUCGUCUUAUACAUGAGGAUCACCCAUGUAUUGGACCGCAUCGAUAGAUGUAGACCAAGAAGCAUGGG [Omdei Mir OFFv1 C5] (Eterna round: R97, puzzle: Sensor, turn-off variant 1)
apparent KD of MS2 coat protein (input ligand: FMN 200 uM): 50.6 nM
apparent KD of MS2 coat protein (input ligand: none): 48.2 nM

AGGAAGCAAGGAUAUACGAGGAGAAGGUGUCCAUCUAAAGGACAUGAGGAUCACCCAUGUAGAAGGUGCGAGAA [JR_Exclu2_Sub049] (puzzle: Exclusion 2)
apparent KD of MS2 coat protein [2]: 49.6 nM
apparent KD of MS2 coat protein [3]: 210 nM
apparent KD of MS2 coat protein [4]: 189 nM

AGGCACUAAGGAUAUACAAAGGUGCUGCGUAUGCUAGCCAGACAUGAGGAUCACCCAUGUAGAAGGUAGGAAUA [EX2 B.14] (Eterna round: R97, puzzle: Exclusion 2)
apparent KD of MS2 coat protein (input ligand: FMN 200 uM): 16.4 nM
apparent KD of MS2 coat protein (input ligand: none): 16.8 nM

AGGCCUCGAGGAUAUACAUGAGGAUCACCCAUGUCAUAAUAGAUUGUUAUGAGACAUCGUAGAAGGCGAUGGCC [Eternabot (L2) Solution 98] (Eterna round: R97, puzzle: Exclusion 3)
apparent KD of MS2 coat protein (input ligand: FMN 200 uM): 78.1 nM
apparent KD of MS2 coat protein (input ligand: none): 30 nM

AGGUAGUCAGGAUAUUAGGAGUAGCGGGAUAACGCUACGAGUGAGAAGGGACAUGAGGAUCACCCAUGUUUAUU [JR_Ex4_Sub069] (Eterna round: R97, puzzle: Exclusion 4)
apparent KD of MS2 coat protein (input ligand: FMN 200 uM): 70.3 nM
apparent KD of MS2 coat protein (input ligand: none): 26.8 nM

AGGUCAGAAGGAUAUACAUGAGGAUCACCCAUGUGGGAUACAACGAGCCGUUGUUCAGGUAGAAGGUCUAAAAU [Eternabot (Original) Solution 33] (Eterna round: R97, puzzle: Exclusion 3)
apparent KD of MS2 coat protein (input ligand: FMN 200 uM): 86 nM
apparent KD of MS2 coat protein (input ligand: none): 77.3 nM

AGGUGCUUCAGGAGACAUGAGGAUCACCCAUGUUGAGUUAGCGAGGAUAUCGGUAACCAUUGUGAUGAGAAGGCGCAAACCAGA [Ex NG3 #44] (Eterna round: R96, puzzle: Exclusion NG 3)
apparent KD of MS2 coat protein (input ligand: FMN 200 uM): 60.5 nM
apparent KD of MS2 coat protein [1]: 15.6 nM
apparent KD of MS2 coat protein (input ligand: none): 47.3 nM

AGGUGCUUCUGGAAACAUGAGGAUCACCCAUGUUGAGUUAGCGAGGAUAUCGGUAACAAUUGUUAUGAGAAGGCGCAAACCAGA [Ex NG3 #36] (Eterna round: R96, puzzle: Exclusion NG 3)
apparent KD of MS2 coat protein (input ligand: FMN 200 uM): 17 nM
apparent KD of MS2 coat protein [1]: 12.5 nM
apparent KD of MS2 coat protein (input ligand: none): 20.7 nM

AGUAACCGUCACGAAAGUGAUGGUUACACAAGCAAAUGUACAUGAGGAUCACCCAUGUCCUCAUUUGCUCGUCUUAU [Sensor 3 - 45] (puzzle: Sensor v3, turn-off variant 2)
apparent KD of MS2 coat protein [2]: 17.2 nM
apparent KD of MS2 coat protein [3]: 379 nM
apparent KD of MS2 coat protein [4]: 18.3 nM

AGUAACCGUCACGAAAGUGAUGGUUACACAAGUGUAAUAACAUGAGGAUCACCCAUGUCCUCAUUUGCUCGUUUUAU [Sensor 3 - 37] (puzzle: Sensor v3, turn-off variant 2)
apparent KD of MS2 coat protein [2]: 45.1 nM
apparent KD of MS2 coat protein [3]: 144 nM
apparent KD of MS2 coat protein [4]: 140 nM

AGUAACUAUCACGAAAGUGAUAGUUACACAAGCAGUGACACAUGAGGAUCACCCAUGUCCUCAUUUGCUCGUCUUAU [Sensor 3 - 29] (puzzle: Sensor v3, turn-off variant 2)
apparent KD of MS2 coat protein [2]: 614 nM
apparent KD of MS2 coat protein [3]: 637 nM
apparent KD of MS2 coat protein [4]: 478 nM

AGUACAUGAGGAUCACCCAUGUCAGUUAUCAAUGGCACGCCUAAGGAUAUUGAGCGUCAAAGGCUCAAGAAGGUAGCUUUAUGC [Eternabot solution 12] (Eterna round: R96, puzzle: Exclusion NG 3)
apparent KD of MS2 coat protein (input ligand: FMN 200 uM): 13.7 nM
apparent KD of MS2 coat protein [1]: 16.7 nM
apparent KD of MS2 coat protein (input ligand: none): 25.6 nM

Source: the supplement of paper PMC9170038
